Measurements taken from article PMC6712834, “SUMOylation regulates USP5-Cav3.2 calcium channel interactions” (Molecular Brain, 2019).

Target: T1, Cav3.2-GFP tagged calcium channel (human, UniProt O95180 1-2353)
T1 construct: also called Cav3.2 T-type calcium channel; source: tsA-201 cells, transfected (lipofectamine 2000), in lysate; not shown: GFP, C-terminal, kept
Test: co-IP; tsA-201 cells co-expressing Cav3.2-GFP and mCherry-USP5 (WT or K113R); lysed in modified RIPA buffer (50 mM Tris, 100 mM NaCl, 0.2% Triton X-100, 0.2% NP-40, 10 mM EDTA, pH 7.5); Cav3.2-GFP precipitated with anti-GFP antibody and Protein G/A beads overnight at 4 °C; blot probed with mCherry antibody; densitometry
Conditions: partners not purified

T1 sequence (O95180 whole entry): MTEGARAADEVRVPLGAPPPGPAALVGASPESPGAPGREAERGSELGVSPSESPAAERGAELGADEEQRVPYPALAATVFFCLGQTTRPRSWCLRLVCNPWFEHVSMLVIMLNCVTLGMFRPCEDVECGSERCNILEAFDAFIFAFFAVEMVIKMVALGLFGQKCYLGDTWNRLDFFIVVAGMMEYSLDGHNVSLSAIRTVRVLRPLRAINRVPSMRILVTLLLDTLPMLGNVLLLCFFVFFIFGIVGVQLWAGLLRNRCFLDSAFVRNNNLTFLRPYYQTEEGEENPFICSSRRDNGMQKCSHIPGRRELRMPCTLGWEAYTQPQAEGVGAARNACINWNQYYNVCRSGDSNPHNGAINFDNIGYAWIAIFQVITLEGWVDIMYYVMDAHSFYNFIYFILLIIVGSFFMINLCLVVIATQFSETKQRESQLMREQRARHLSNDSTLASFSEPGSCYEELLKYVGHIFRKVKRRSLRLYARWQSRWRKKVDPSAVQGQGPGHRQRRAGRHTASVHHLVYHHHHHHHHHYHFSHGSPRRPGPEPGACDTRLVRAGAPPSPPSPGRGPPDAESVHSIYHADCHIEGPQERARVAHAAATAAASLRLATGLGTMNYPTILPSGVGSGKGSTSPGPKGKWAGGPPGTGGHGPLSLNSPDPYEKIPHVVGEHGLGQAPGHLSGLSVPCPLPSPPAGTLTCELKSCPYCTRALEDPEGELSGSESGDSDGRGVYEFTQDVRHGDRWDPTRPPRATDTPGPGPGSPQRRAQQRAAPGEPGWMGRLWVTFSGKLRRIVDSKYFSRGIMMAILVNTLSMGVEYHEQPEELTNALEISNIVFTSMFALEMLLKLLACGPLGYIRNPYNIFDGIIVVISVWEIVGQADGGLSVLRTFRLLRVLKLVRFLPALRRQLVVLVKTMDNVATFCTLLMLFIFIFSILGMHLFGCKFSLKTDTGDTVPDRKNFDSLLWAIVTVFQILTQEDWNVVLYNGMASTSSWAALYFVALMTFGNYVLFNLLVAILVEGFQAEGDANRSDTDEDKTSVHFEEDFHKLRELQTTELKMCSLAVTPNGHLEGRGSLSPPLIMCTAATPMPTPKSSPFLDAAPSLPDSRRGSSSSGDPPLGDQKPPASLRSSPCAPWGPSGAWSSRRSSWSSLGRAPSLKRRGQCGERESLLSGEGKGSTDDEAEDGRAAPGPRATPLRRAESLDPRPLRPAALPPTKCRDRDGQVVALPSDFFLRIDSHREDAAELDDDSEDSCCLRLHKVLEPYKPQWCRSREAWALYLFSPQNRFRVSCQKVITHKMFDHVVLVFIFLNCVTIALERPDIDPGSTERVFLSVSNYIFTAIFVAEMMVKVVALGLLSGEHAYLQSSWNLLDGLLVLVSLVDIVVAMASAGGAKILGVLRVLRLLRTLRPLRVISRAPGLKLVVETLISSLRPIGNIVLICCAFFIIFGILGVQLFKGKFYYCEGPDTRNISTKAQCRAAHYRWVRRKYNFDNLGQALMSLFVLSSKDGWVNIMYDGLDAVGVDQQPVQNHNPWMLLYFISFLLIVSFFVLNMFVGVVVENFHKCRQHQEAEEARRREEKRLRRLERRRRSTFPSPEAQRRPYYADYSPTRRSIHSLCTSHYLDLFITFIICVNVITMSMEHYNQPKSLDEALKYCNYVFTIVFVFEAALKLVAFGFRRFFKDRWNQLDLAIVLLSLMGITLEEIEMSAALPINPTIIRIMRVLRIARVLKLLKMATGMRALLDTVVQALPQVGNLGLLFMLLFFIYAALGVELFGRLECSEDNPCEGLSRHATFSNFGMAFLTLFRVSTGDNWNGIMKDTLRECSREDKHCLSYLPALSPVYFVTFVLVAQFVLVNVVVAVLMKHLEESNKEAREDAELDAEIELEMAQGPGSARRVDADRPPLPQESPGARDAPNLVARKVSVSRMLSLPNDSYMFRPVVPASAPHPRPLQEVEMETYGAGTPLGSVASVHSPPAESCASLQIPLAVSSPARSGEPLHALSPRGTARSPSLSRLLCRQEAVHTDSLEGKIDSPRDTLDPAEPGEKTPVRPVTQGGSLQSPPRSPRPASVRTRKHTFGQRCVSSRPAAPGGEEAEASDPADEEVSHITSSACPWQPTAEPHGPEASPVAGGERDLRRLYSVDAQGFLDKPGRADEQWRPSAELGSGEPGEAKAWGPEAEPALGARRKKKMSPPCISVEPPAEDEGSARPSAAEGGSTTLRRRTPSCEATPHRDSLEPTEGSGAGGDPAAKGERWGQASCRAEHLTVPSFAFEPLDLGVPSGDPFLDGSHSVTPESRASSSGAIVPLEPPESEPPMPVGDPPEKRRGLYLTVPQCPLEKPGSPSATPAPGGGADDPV

- fold change of co-precipitated amount against USP5-WT: ~2.2 fold
B1: mCherry tagged USP5-K113R mutant (enzyme, human, UniProt P45974-1 1-858, looked up)
chain: MAELSEEALLSVLPTIRVPKAGDRVHKDECAFSFDTPESEGGLYICMNTFLGFGKQYVERHFNKTGQRVYLHLRRTRRPKEEDPATGTGDPPRKKPTRLAIGVEGGFDLSEERFELDEDVKIVILPDYLEIARDGLGGLPDIVRDRVTSAVEALLSADSASRKQEVQAWDGEVRQVSKHAFSLKQLDNPARIPPCGWKCSKCDMRENLWLNLTDGSILCGRRYFDGSGGNNHAVEHYRETGYPLAVKLGTITPDGADVYSYDEDDMVLDPSLAEHLSHFGIDMLKMQKTDKTMTELEIDMNQRIGEWELIQESGVPLKPLFGPGYTGIRNLGNSCYLNSVVQVLFSIPDFQRKYVDKLEKIFQNAPTDPTQDFSTQVAKLGHGLLSGEYSKPVPESGDGERVPEQKEVQDGIAPRMFKALIGKGHPEFSTNRQQDAQEFFLHLINMVERNCRSSENPNEVFRFLVEEKIKCLATEKVKYTQRVDYIMQLPVPMDAALNKEELLEYEEKKRQAEEEKMALPELVRAQVPFSSCLEAYGAPEQVDDFWSTALQAKSVAVKTTRFASFPDYLVIQIKKFTFGLDWVPKKLDVSIEMPEELDISQLRGTGLQPGEEELPDIAPPLVTPDEPKGSLGFYGNEDEDSFCSPHFSSPTSPMLDESVIIQLVEMGFPMDACRKAVYYTGNSGAEAAMNWVMSHMDDPDFANPLILPGSSGPGSTSAAADPPPEDCVTTIVSMGFSRDQALKALRATNNSLERAVDWIFSHIDDLDAEAAMDISEGRSAADSISESVPVGPKVRDGPGKYQLFAFISHMGTSTMCGHYVCHIKKEGRWVIYNDQKVCASEKPPKDLGYIYFYQRVAS
notes: Homo sapiens ubiquitin specific peptidase 5 (USP5), open reading frame of GenBank NM_001098536 in pcDNA3.1, point mutant made by PCR; also called SUMO-resistant USP5-K113R; SUMO2/3 resistant USP5-K113R mutant; source: tsA-201 cells, transfected (lipofectamine 2000), in lysate; not shown: mCherry, N-terminal, kept
